Source: paper doi:10.1101/2025.11.01.685996 (bioRxiv, 2025)

Columns and labels:
[1] = molecular target: human C3aR with C-terminal SmBiT (hC3aR) (human) (UniProt Q16581)
[2] = molecular target: human C5aR1 with C-terminal SmBiT (hC5aR1-SmBiT) (human) (UniProt P21730)
[3] = molecular target: mouse C5aR2, purified from Sf9 cells (mC5aR2) (not stated | mouse) (UniProt P08173); test: cryo-EM structure
[4] = molecular target: mouse C5aR2, purified from Sf9 cells (mC5aR2) (not stated | mouse) (UniProt P08173); test: SEC
[5] = molecular target: human C5aR1-Rluc8 (human) (UniProt P21730)
[6] = molecular target: T1, mouse C5aR1, purified (mC5aR1) for cryo-EM and HDX-MS (mouse, UniProt P30993 1-351); test: cryo-EM structure
T1 sequence: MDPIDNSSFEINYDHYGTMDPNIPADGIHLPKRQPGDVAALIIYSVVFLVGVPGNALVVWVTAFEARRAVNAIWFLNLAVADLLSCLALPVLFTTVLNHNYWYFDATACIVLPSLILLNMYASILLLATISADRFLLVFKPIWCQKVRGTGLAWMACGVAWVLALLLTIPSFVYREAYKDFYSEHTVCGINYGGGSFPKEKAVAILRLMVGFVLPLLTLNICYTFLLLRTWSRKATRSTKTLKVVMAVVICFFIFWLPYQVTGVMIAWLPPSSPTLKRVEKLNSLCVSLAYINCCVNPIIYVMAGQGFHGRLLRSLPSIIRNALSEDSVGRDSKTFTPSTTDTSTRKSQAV

Chain of human C5aR1 with C-terminal SmBiT (hC5aR1-SmBiT) (human) (P21730 whole entry): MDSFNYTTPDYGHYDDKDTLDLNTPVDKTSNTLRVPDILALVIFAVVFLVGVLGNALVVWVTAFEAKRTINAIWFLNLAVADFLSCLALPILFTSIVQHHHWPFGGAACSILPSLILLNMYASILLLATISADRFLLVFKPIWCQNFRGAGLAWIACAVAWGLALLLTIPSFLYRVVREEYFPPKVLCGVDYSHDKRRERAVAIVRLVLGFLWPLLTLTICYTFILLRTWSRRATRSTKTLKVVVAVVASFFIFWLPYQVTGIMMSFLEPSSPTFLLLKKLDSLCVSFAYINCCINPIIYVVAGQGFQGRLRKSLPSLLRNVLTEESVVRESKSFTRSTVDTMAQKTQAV
Chain of human C5aR1-Rluc8 (human) (P21730 whole entry): as above
Chain of human C3aR with C-terminal SmBiT (hC3aR) (human) (Q16581 whole entry): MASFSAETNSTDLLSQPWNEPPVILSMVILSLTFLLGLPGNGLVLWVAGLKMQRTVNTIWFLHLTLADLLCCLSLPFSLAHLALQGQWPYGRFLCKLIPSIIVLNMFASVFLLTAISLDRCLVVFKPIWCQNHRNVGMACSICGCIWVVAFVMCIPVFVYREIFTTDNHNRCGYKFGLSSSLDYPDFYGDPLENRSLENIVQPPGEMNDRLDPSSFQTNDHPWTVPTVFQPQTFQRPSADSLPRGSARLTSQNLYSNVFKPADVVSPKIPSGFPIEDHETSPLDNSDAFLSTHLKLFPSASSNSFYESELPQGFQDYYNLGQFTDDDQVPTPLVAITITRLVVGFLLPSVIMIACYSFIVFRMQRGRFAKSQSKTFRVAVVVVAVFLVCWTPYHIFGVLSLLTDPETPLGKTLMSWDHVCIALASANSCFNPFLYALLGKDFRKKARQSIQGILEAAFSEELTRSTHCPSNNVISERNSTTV

R8Y, [Tyr1,Tyr8]BM2020-8, C5aR2-selective peptide agonist
activation of C3aR (Figure S10D and Table S1) [1]: > 10 µM
activation of C5aR1 (Figure S10D and Table S1) [2]: > 10 µM

mouse C5aR2, purified from Sf9 cells (mC5aR2) (from UniProt P08173 2-23) (receptor)
stoichiometry N [3]: 2
stoichiometry N [4]: 2

[Tyr8]BM2020-8 peptide
efficacy at C5aR1 relative to C5a; read-out not given [5]: 41%

B1: mouse complement anaphylatoxin C5a, recombinant (mC5a) (ligand)
chain: NLHLLRQKIEEQAAKYKHSVPKKCCYDGARVNFYETCEERVARVTIGPLCIRAFNECCTIANKIRKESPHKPVQLGR
binding result [6]: binds
